T1: Human CLEC-7A (Dectin-1) (human, UniProt Q9BXN2-2 66-201, limits assumed)
T1 construct: Bought protein; also called C-type lectin domain family 7 member A
T1 sequence (looked up): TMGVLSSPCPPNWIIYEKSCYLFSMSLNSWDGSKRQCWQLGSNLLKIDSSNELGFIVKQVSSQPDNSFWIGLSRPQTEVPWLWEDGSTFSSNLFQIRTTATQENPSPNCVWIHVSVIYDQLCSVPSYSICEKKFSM

T2: Human CLEC-1A (human, UniProt Q8NC01 74-280, limits assumed)
T2 construct: Bought protein; also called C-type lectin domain family 1 member A
T2 sequence (looked up): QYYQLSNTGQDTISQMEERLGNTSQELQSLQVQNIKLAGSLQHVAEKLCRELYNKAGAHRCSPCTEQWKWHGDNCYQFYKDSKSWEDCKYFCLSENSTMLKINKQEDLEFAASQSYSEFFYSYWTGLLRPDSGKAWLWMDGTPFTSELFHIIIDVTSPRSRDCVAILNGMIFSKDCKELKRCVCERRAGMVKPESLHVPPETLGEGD

T3: Human CLEC-4L (DC-SIGN) (human, UniProt Q9NNX6 62-404)
T3 construct: Bought protein; also called C-type lectin domain family 4 member L
T3 sequence (looked up): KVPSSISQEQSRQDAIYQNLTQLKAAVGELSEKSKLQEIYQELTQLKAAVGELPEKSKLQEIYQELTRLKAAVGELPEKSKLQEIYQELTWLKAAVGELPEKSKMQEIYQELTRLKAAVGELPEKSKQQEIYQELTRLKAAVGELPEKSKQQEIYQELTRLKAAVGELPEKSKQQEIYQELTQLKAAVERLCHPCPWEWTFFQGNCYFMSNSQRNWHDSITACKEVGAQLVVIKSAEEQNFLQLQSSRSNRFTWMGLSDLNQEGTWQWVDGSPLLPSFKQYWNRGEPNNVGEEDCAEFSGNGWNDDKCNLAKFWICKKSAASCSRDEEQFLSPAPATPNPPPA

T4: Human SR-A1 (MSR) (human, UniProt P21757 77-451)
T4 construct: Bought protein; also called Macrophage scavenger receptor types I and II
T4 sequence (looked up): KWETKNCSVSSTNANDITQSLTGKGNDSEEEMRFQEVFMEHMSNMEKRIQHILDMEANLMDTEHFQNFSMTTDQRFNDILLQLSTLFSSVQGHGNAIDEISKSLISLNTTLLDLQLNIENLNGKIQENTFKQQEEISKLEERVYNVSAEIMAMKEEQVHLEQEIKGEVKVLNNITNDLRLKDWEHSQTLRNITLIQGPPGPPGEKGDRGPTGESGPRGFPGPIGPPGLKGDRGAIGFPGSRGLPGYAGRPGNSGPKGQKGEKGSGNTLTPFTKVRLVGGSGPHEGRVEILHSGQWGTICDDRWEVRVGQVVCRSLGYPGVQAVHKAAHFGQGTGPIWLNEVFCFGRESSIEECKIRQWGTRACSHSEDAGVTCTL


Experiments:
[1] = molecular target: T5, human LOX1 on cells (human LOX1 transfected CHO TREX cells) (human, UniProt P78380 1-273); test: cell-based or functional assay
Human CLEC-7A (Dectin-1) = molecular target: T1, Human CLEC-7A (Dectin-1); test: IgG binding ELISA on coated antigen, absorbance at 450 nm
Human CLEC-1A = molecular target: T2, Human CLEC-1A; test: as above
Human CLEC-4L (DC-SIGN) = molecular target: T3, Human CLEC-4L (DC-SIGN); test: as above
Human CLEC-1B (CLEC-2) = molecular target: T6, Human CLEC-1B (CLEC-2) (human, UniProt Q9P126 58-229, limits assumed); test: as above
T6 construct: Bought protein; also called C-type lectin domain family 1 member B

Human SR-A1 (MSR) = molecular target: T4, Human SR-A1 (MSR); test: as above
Human SR-B3 (CD36) = molecular target: T7, Human SR-B3 (CD36) (human, UniProt P16671 30-439); test: as above
T7 construct: Bought protein; also called Platelet glycoprotein 4

[2] = molecular target: T5, human LOX1 on cells (human LOX1 …); test: saturation binding of DyLight 649 labelled antibody on hLOX1 CHO TREX cells (FMAT)
[3] = molecular target: T5, human LOX1 on cells (human LOX1 …); test: competition with DyLight 649 oxLDL on human LOX1 CHO TREX cells, FMAT
[4] = molecular target: T5, human LOX1 on cells (human LOX1 …); test: competition with DyLight 649 AGE-BSA on human LOX1 CHO TREX cells, FMAT
[5] = molecular target: T8, recombinant human LOX1 (R&D Systems) (human, UniProt P78380 61-273); test: competition with biotin CRP on plate-bound recombinant human LOX1, DELFIA
[6] = molecular target: T9, human LOX1 SNP K167N variant on cells (K167N SNP transfected CHO TREX cells) (human, UniProt P78380 1-273); test: competition with DyLight 649 oxLDL on human LOX1 K167N CHO TREX cells, FMAT
T9 construct: whole, on cells; also called hLOX1 K167N; K167N hLOX1 CHO

[7] = molecular target: T5, human LOX1 on cells (human LOX1 …); test: competition with DyLight 649 AGE-BSA on hLOX1 CHO TREX cells (FMAT); row label not given, assay assigned by block order of Table 5
[8] = molecular target: T8, recombinant human LOX1 (R&D Systems); test: competition with biotin CRP on immobilised recombinant hLOX1 (DELFIA); row label not given, assay assigned by block order of Table 5
[9] = molecular target: T9, human LOX1 SNP K167N variant on cells …; test: competition with DyLight 649 oxLDL on K167N hLOX1 CHO TREX cells (FMAT); row label not given, assay assigned by block order of Table 5
[10] = molecular target: T5, human LOX1 on cells (human LOX1 …); test: competition with DyLight 649 oxLDL on hLOX1 CHO TREX cells (FMAT); row label not given, assay assigned by block order of Table 5; first Mean/SD/n block of Table 2 (oxLDL/hLOX1 competition), n = 8
[11] = molecular target: T5, human LOX1 on cells (human LOX1 …); test: competition with DyLight 649 oxLDL on hLOX1 CHO TREX cells (FMAT); row label not given, assay assigned by block order of Table 5
[12] = molecular target: T5, human LOX1 on cells (human LOX1 …); test: saturation binding of DyLight 649 labelled antibody on hLOX1 CHO TREX cells (FMAT); DyLight 649 labeled antibody on hLOX1 CHO TREX cells

T6 sequence (Q9P126 58-229 limits assumed): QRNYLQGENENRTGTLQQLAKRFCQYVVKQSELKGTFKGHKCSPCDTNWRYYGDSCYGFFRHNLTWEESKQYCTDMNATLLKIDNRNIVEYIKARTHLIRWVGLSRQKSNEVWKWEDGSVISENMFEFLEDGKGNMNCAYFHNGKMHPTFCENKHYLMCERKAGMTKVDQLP
T7 sequence (P16671 30-439 limits assumed): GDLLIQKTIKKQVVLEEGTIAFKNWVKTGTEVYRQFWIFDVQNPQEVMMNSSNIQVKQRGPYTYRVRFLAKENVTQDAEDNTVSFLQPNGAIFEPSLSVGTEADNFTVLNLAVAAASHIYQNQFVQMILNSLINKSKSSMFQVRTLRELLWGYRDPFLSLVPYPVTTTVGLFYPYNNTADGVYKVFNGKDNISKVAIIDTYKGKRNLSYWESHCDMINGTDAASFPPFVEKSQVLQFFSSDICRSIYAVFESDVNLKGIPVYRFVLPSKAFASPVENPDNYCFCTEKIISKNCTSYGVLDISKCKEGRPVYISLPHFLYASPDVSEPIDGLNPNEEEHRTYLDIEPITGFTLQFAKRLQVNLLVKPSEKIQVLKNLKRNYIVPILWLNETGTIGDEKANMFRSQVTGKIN

IC50 of inhibition of Cypher 5E oxLDL internalization in hLOX1 CHO TREX cells (row label not given; assay assigned by block order of Table 5) [1] [nM]	IC50 of inhibition of oxLDL-dependent ROS generation in hLOX1 CHO TREX cells (row label not given; assay assigned by block order of Table 5) [1] [nM]	Kd [2] [nM]	IC50 (read off the curve) [3] [nM]	IC50 (read off the curve) [4] [nM]	IC50 (read off the curve) [5] [nM]	IC50 (read off the curve) [6] [nM]	IC50 [7] [nM]	IC50 [8] [nM]	IC50 [9] [nM]	IC50 [10] [nM]	IC50 [11] [nM]	Kd [12] [nM]	Binder	binding result (Human CLEC-7A (Dectin-1))	binding result (Human CLEC-1A)	binding result (Human CLEC-4L (DC-SIGN))	binding result (Human CLEC-1B (CLEC-2))	binding result (Human SR-A1 (MSR))	binding result (Human SR-B3 (CD36))
0.35	6.22	3.3	~0.3	~0.01	~2	~0.4	0.0873	4.69	0.246	0.131			LOX696 IgG1-TM (antibody, V domains shown, Whole human IgG1-TM (L234F/L235E/P331S); Labelled with DyLight 649 in Assay 7; also called LOX10696-IgG1-TM; LOX10696 IgG1-TM) VH: QVQLVQSGGGLVQPGRSLRLSCAASGFTFDDYAMHWVRQAPGKGLEWVSGISWNSGSIGYADSVKGRFTISRDNAKNSLYLQMNSLRAEDTAVYYCAREGNWNYDAFDIWGRGTTVTVSS VL: QSALTQPASVSGSPGQSITISCTGTSSDVGGYNYVSWYQQHPGKAPKLMIYDVSNRPSGVSNRFSGSKSGNTASLTISGLQAEDEADYYCSSYTSSSTNWVFGGGTKLTVL	no binding (tested: 0.2 µg/mL (single concentration))	no binding (tested: 0.2 µg/mL (single concentration))	no binding (tested: 0.2 µg/mL (single concentration))	no binding (tested: 0.2 µg/mL (single concentration))	no binding (tested: 0.2 µg/mL (single concentration))	no binding (tested: 0.2 µg/mL (single concentration))
0.772	8.28			~0.1	~2		0.207	1.98			0.642	0.8	LOX514 IgG1-TM (antibody, V domains shown, Whole human IgG1-TM (L234F/L235E/P331S); Labelled with DyLight 649 in Assay 7; also called LOX10514-IgG1-TM; LOX10514 IgG1-TM) VH: QVQLVQSGAEVKKPGASVKVSCKVSGYTLTELSMHWVRQAPGKGLEWMGGFDPEDGETIYAQKFQGRVTMTEDTSTDTAYMELSSLRSEDTAVYYCATPNGQQGKGVRGWDYYYGMDVWGRGTTVTVSS VL: QSVVTQPPSVSGAPGQRVTISCTGSSSNIGAGYDVHWYQQLPGTAPKLLIYGNSNRPSGVPDRFSGSKSGTSASLAITGLQAEDEADYYCQSYDSSLSGWVFGGGTKLTVL	no binding (tested: 0.2 µg/mL (single concentration))	no binding (tested: 0.2 µg/mL (single concentration))	no binding (tested: 0.2 µg/mL (single concentration))	no binding (tested: 0.2 µg/mL (single concentration))	no binding (tested: 0.2 µg/mL (single concentration))	no binding (tested: 0.2 µg/mL (single concentration))
